{
  "source": "the RNAGym collection of RNA variant scans (doi:10.7554/elife.80360)",
  "parents": {"B1": {"name": "Hairpin Ribozyme (parent)", "chain": "GUCCUCUUUCACGUGCGCGUGAAAGAGAGAAGUGAACCAGAGAAACACACGUUGUGGUAUAUUACCUGGUA"}},
  "data": [
    {"variants_of": "B1", "assay": "self-cleavage, relative activity (ratio to wild type); higher = more cleavage; co-transcriptional", "values": [
      {"variant": "G27C G32C", "self-cleavage": 0.13},
      {"variant": "G27C G32A", "self-cleavage": 0.191},
      {"variant": "G27U G29A", "self-cleavage": 0.225},
      {"variant": "G27U G29C", "self-cleavage": 0.101},
      {"variant": "G27U G29U", "self-cleavage": 0.119},
      {"variant": "G27C A30U", "self-cleavage": 0.255},
      {"variant": "G25U G40U", "self-cleavage": 0.132},
      {"variant": "G25U C66A", "self-cleavage": 0.182},
      {"variant": "G25U C66G", "self-cleavage": 0.177},
      {"variant": "G27C C48A", "self-cleavage": 0.0978},
      {"variant": "G27C C48G", "self-cleavage": 0.164},
      {"variant": "G27C C37U", "self-cleavage": 0.0764},
      {"variant": "G27C C37G", "self-cleavage": 0.239},
      {"variant": "G27C C46U", "self-cleavage": 0.106},
      {"variant": "A26C G56C", "self-cleavage": 0.0943},
      {"variant": "A26C G56A", "self-cleavage": 0.163},
      {"variant": "G27A U55C", "self-cleavage": 0.211},
      {"variant": "G27A U55G", "self-cleavage": 0.144},
      {"variant": "A26U G69C", "self-cleavage": 0.247},
      {"variant": "G27C U63G", "self-cleavage": 0.101},
      {"variant": "G27U A44U", "self-cleavage": 0.169},
      {"variant": "A26U C48U", "self-cleavage": 0.0687},
      {"variant": "A26U A61G", "self-cleavage": 0.187},
      {"variant": "A26U A61C", "self-cleavage": 0.226},
      {"variant": "G27U U52A", "self-cleavage": 0.354},
      {"variant": "A26G A61U", "self-cleavage": 0.281},
      {"variant": "G27C G68U", "self-cleavage": 0.147},
      {"variant": "G27C U62C", "self-cleavage": 0.12},
      {"variant": "G27C U62G", "self-cleavage": 0.161},
      {"variant": "A26G C65G", "self-cleavage": 0.23},
      {"variant": "A26G C65U", "self-cleavage": 0.311},
      {"variant": "A26C G51U", "self-cleavage": 0.919},
      {"variant": "A26C G51C", "self-cleavage": 0.714},
      {"variant": "G25U A45C", "self-cleavage": 0.219},
      {"variant": "G25U G29A", "self-cleavage": 0.149},
      {"variant": "G25U G29C", "self-cleavage": 0.153},
      {"variant": "G27A U58C", "self-cleavage": 0.516},
      {"variant": "A26U G68A", "self-cleavage": 0.23},
      {"variant": "G27A C38G", "self-cleavage": 0.0969},
      {"variant": "A26C A71U", "self-cleavage": 0.567},
      {"variant": "G27U A49C", "self-cleavage": 0.225},
      {"variant": "G27A G29C", "self-cleavage": 0.12},
      {"variant": "A26G A30C", "self-cleavage": 0.0939},
      {"variant": "A26G A30G", "self-cleavage": 0.0496},
      {"variant": "G25U A31U", "self-cleavage": 0.166},
      {"variant": "G25U A31C", "self-cleavage": 0.176},
      {"variant": "G25C G57C", "self-cleavage": 0.12},
      {"variant": "G25C G57U", "self-cleavage": 0.216},
      {"variant": "G27U C37A", "self-cleavage": 0.108},
      {"variant": "A26C U52C", "self-cleavage": 0.811},
      {"variant": "G27U A30G", "self-cleavage": 0.0852},
      {"variant": "G27U C65A", "self-cleavage": 0.184},
      {"variant": "A26U A59U", "self-cleavage": 0.108},
      {"variant": "G27A A35U", "self-cleavage": 0.261},
      {"variant": "G27A A35G", "self-cleavage": 0.449},
      {"variant": "A26C G32C", "self-cleavage": 0.175},
      {"variant": "A26C G32A", "self-cleavage": 0.0538},
      {"variant": "G27A A30U", "self-cleavage": 0.0812},
      {"variant": "A26U U70A", "self-cleavage": 0.575},
      {"variant": "A26U U70G", "self-cleavage": 0.397},
      {"variant": "A26U A30C", "self-cleavage": 0.205},
      {"variant": "G25U A61C", "self-cleavage": 0.231},
      {"variant": "G25U A61G", "self-cleavage": 0.178},
      {"variant": "A26C G68A", "self-cleavage": 0.117},
      {"variant": "G27C A31G", "self-cleavage": 0.124},
      {"variant": "G27C A31C", "self-cleavage": 0.131},
      {"variant": "G27A C37A", "self-cleavage": 0.219},
      {"variant": "G27A C37U", "self-cleavage": 0.32},
      {"variant": "A26C G69U", "self-cleavage": 0.108},
      {"variant": "A26C G69C", "self-cleavage": 0.212},
      {"variant": "A26U A28G", "self-cleavage": 1},
      {"variant": "G27A U52A", "self-cleavage": 0.337},
      {"variant": "G27C U60G", "self-cleavage": 0.0405},
      {"variant": "G25U G42A", "self-cleavage": 0.144},
      {"variant": "G27C A28U", "self-cleavage": 0.138},
      {"variant": "G27C A28G", "self-cleavage": 0.128},
      {"variant": "G27C A28C", "self-cleavage": 0.164},
      {"variant": "A26C C50G", "self-cleavage": 0.174},
      {"variant": "G27C A43U", "self-cleavage": 0.151},
      {"variant": "G25U A59G", "self-cleavage": 0.108},
      {"variant": "G27U A47G", "self-cleavage": 0.222},
      {"variant": "G27U A47C", "self-cleavage": 0.157},
      {"variant": "G27C A45C", "self-cleavage": 0.11},
      {"variant": "G27U U33G", "self-cleavage": 0.145},
      {"variant": "G25U A64G", "self-cleavage": 0.428},
      {"variant": "G25U A64U", "self-cleavage": 0.142},
      {"variant": "A26C A47G", "self-cleavage": 0.187},
      {"variant": "A26C A47U", "self-cleavage": 0.0646},
      {"variant": "G27C A61C", "self-cleavage": 0.0843},
      {"variant": "G27C A61G", "self-cleavage": 0.237},
      {"variant": "G25U A47U", "self-cleavage": 0.205},
      {"variant": "A26C G42C", "self-cleavage": 0.357},
      {"variant": "G25U G56U", "self-cleavage": 0.223},
      {"variant": "G25U G56C", "self-cleavage": 0.17},
      {"variant": "G25U G56A", "self-cleavage": 0.21},
      {"variant": "A26G A71G", "self-cleavage": 0.935},
      {"variant": "A26G A71U", "self-cleavage": 0.823},
      {"variant": "G27A A44G", "self-cleavage": 0.0958},
      {"variant": "G25U G27A", "self-cleavage": 0.131},
      {"variant": "G25U G27C", "self-cleavage": 0.254},
      {"variant": "G25U G27U", "self-cleavage": 0.17},
      {"variant": "A26G G68U", "self-cleavage": 0.131},
      {"variant": "G27A A47U", "self-cleavage": 0.111},
      {"variant": "G27C G29C", "self-cleavage": 0.163},
      {"variant": "A26C U63A", "self-cleavage": 0.175},
      {"variant": "A26U G32C", "self-cleavage": 0.128},
      {"variant": "A26U G32A", "self-cleavage": 0.154},
      {"variant": "G25U A26C", "self-cleavage": 0.21},
      {"variant": "G25U A26G", "self-cleavage": 0.421},
      {"variant": "G27A G57A", "self-cleavage": 0.145},
      {"variant": "A26C U70A", "self-cleavage": 0.63},
      {"variant": "G27C G69U", "self-cleavage": 0.162},
      {"variant": "G27A G69A", "self-cleavage": 0.155},
      {"variant": "A26G U60A", "self-cleavage": 0.763},
      {"variant": "A26G U60C", "self-cleavage": 0.963},
      {"variant": "G27C C50A", "self-cleavage": 0.242},
      {"variant": "A26C C48G", "self-cleavage": 0.138},
      {"variant": "G25C U67C", "self-cleavage": 0.134},
      {"variant": "A26G G34U", "self-cleavage": 1.37},
      {"variant": "A26G G34A", "self-cleavage": 1.19},
      {"variant": "A26G C50U", "self-cleavage": 0.347},
      {"variant": "G27U A31G", "self-cleavage": 0.164},
      {"variant": "A26U U58C", "self-cleavage": 0.657},
      {"variant": "G25C G42U", "self-cleavage": 0.182},
      {"variant": "G25C G42C", "self-cleavage": 0.236},
      {"variant": "A26G G29U", "self-cleavage": 0.0885},
      {"variant": "G27A A71U", "self-cleavage": 0.28},
      {"variant": "G27A G40U", "self-cleavage": 0.179},
      {"variant": "G27U A41C", "self-cleavage": 0.423},
      {"variant": "A26U U53C", "self-cleavage": 0.599},
      {"variant": "G27A A59G", "self-cleavage": 0.191},
      {"variant": "G27A A59C", "self-cleavage": 0.103},
      {"variant": "G27A A59U", "self-cleavage": 0.185},
      {"variant": "G25U U62A", "self-cleavage": 0.114},
      {"variant": "G25U U62G", "self-cleavage": 0.237},
      {"variant": "A26U C65G", "self-cleavage": 0.111},
      {"variant": "G27C U67A", "self-cleavage": 0.104},
      {"variant": "G27U A28C", "self-cleavage": 0.179},
      {"variant": "A26U U62C", "self-cleavage": 0.192},
      {"variant": "A26U U62A", "self-cleavage": 0.214},
      {"variant": "G27A U53A", "self-cleavage": 0.371},
      {"variant": "G27U G68U", "self-cleavage": 0.157},
      {"variant": "G27U G68C", "self-cleavage": 0.102},
      {"variant": "A26G G69U", "self-cleavage": 0.204},
      {"variant": "A26G G69C", "self-cleavage": 0.403},
      {"variant": "G27U U53C", "self-cleavage": 0.398},
      {"variant": "G27U U53A", "self-cleavage": 0.111},
      {"variant": "G27A A64C", "self-cleavage": 0.189},
      {"variant": "A26U G29A", "self-cleavage": 0.198},
      {"variant": "G27C A39U", "self-cleavage": 0.0549},
      {"variant": "A26G A36G", "self-cleavage": 0.769},
      {"variant": "G27U G56U", "self-cleavage": 0.108},
      {"variant": "G27U G56A", "self-cleavage": 0.0845},
      {"variant": "A26G G32C", "self-cleavage": 0.144},
      {"variant": "A26G G32U", "self-cleavage": 0.121},
      {"variant": "A26U G56U", "self-cleavage": 0.279},
      {"variant": "A26U G56A", "self-cleavage": 0.129},
      {"variant": "A26C U33C", "self-cleavage": 0.143},
      {"variant": "A26C U33A", "self-cleavage": 0.23},
      {"variant": "A26G G57A", "self-cleavage": 0.196},
      {"variant": "A26G G57C", "self-cleavage": 0.103},
      {"variant": "G25U U58A", "self-cleavage": 0.447},
      {"variant": "G25U U58C", "self-cleavage": 0.503},
      {"variant": "A26C U55C", "self-cleavage": 0.211},
      {"variant": "G25U U52A", "self-cleavage": 0.55},
      {"variant": "G25U A41U", "self-cleavage": 1.08},
      {"variant": "A26G A44U", "self-cleavage": 0.103}
    ]}
  ]
}
